Patent US20250388702A1 (Dana-Farber, published 2025)

B1: KIR3DL3 mAb 574.2.2D8.6.9 (antibody, IgG2b, V domains shown)
VH: DVQLVESGGGLVQPGGSRKLSCAASGFTFSYFGMHWVRRAPEKGLEWVAFISSDSTTIYYTDTVKGRFTISRDNPKNTLFLQMTSLRSEDTAIYYCARFYDGAMDYWGQGTSVTVST
VL: DIVMTQSQKFMSTSVGDRVSITCKASQSVRTAVAWYQQKPGQSPKVLIYLASNRHTGVPDRFTGSGSGTDFTLTISNVQSEDLADYFCLQHWNYPLTFGAGTKLELK
notes: Mouse hybridoma antibody, IgG2b; also called AVS-3702
B2: KIR3DL3 mAb 574.2.2H1.11.6 (antibody, IgG2b, V domains shown)
VH: B1 VH
VL: B1 VL
notes: Mouse hybridoma antibody, IgG2b; only variable domains given; also called AVS-3704
B3: KIR3DL3 mAb 574.2.1C7.D2.6.5 (antibody, IgG1, V domains shown)
VH: QVQLQQSGAELMKPGASVKISCKATGYTFSNYWIEWIKQRPGHGLEWIGEILPGSGSTNYNEKFKGKATFTAATSSNTAYMQLSSLTSEDSAVYYCARRVPDYYGSRYYFDYWGQGTTLTVSS
VL: NIVMTQSPKSMSMSVGERVTLSCKASENVGIYVSWYQQKPEQSPKLLIYGASNRYTGVPDRFTGSGSATDFTLTISSVQAEDLADYHCGQSYNYPFTFGSGTKLEIK
notes: Mouse hybridoma antibody, IgG1; only variable domains given; also called AVS-3698

These binders were tested against T1, Human KIR3DL3 (human, UniProt Q8N743 26-410) (assay: flow cytometry; blockade of HHLA2-mIgG2a binding to KIR3DL3-transfected 300.19 cells).
T1 construct: also called Killer cell immunoglobulin-like receptor 3DL3
T1 sequence (Q8N743 26-410 H321N limits assumed): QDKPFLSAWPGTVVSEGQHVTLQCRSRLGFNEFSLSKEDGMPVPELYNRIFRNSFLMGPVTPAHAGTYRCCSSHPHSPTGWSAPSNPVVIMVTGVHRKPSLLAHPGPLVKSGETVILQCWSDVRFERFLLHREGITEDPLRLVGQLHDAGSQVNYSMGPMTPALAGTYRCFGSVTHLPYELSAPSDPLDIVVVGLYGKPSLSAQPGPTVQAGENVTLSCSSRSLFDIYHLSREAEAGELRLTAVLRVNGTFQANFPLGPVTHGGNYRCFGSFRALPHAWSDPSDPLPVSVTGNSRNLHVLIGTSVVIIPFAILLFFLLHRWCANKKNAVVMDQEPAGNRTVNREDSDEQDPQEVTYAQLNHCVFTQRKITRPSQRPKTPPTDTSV
Procedure: The indicated concentrations of KIR3DL3 mAbs were pre-incubated with KIR3DL3 transfected 300.19 cells for 30 minutes at 4° C. […] EC50 and IC50 analysis were conducted using GraphPad Prism®.
Binder B1 has an IC50 of 0.21 µg/mL.
In the case of B2, the IC50 is reported as 0.19 µg/mL.
With B3 the IC50 was 0.32 µg/mL.

Each binder was assayed against T1, Human KIR3DL3 (assay: flow cytometry, KIR3DL3-transfected 300.19 cells).
B1 gave a Kd of 0.46 µg/mL.
For B2, the Kd was 0.42 µg/mL.
Binder B3 has a Kd of 0.77 µg/mL.

The binders below were run against T1, Human KIR3DL3 (assay: cell-based or functional assay).
In the case of B1, the “Jurkat IL-2 Luciferase Activation, EC50” value is reported as 1.3 µg/mL and the “Jurkat IL-2 Luciferase, Fold Activation” value is reported as 14.9 fold.
In the case of B2, the “Jurkat IL-2 Luciferase Activation, EC50” value is reported as 1.79 µg/mL and the “Jurkat IL-2 Luciferase, Fold Activation” value is reported as 16.2 fold.
For B3, the “Jurkat IL-2 Luciferase Activation, EC50” value was 77 µg/mL and the “Jurkat IL-2 Luciferase, Fold Activation” value was 8.2 fold.

The binders below were run against T2, KIR2DL4 (UniProt Q99706 22-377, limits assumed) (assay: HEK293 cell microarray).
T2 construct: whole, on cells
T2 sequence (Q99706 22-377 limits assumed): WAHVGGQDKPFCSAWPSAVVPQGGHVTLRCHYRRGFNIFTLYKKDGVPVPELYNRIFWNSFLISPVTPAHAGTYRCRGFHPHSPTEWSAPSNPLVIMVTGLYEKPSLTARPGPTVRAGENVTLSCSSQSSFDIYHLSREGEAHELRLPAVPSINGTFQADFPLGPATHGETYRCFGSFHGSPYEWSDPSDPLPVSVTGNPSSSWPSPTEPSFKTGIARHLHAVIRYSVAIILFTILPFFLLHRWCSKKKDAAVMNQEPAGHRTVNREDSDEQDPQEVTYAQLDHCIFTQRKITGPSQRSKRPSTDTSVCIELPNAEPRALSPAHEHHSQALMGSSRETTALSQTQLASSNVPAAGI
Procedure: (§1) Replicate microarray slides expressing a complete KIR family cDNA panel were fixed and blocked with buffer containing PBS/0.5% BSA and incubated for 1 hour at room temperature with individual KIR3DL3 mAb hybridoma supernatants at 1:5, 1:25 and 1:250 dilutions in PBS/0.1% BSA. Cell arrays were washed with PBS and incubated for 1 hour at room temperature in PBS/0.1% BSA containing AF647-conjugated goat anti-mouse IgG (H+L) (Life Technologies, A21235). Slides were washed with PBS, dried, and imaged for ZsGreen1 and AF647 fluorescence.
as §1, with “In Table 4, replicate” for “Replicate”, “the” for “a complete”, “panel (as in FIG. 1A, FIG. 2B, and FIG. 2C)” for “panel”
B1: no binding (tested: supernatant 1:5, 1:25, 1:250).
B2: no binding (tested: supernatant 1:5, 1:25, 1:250).
B3: no binding (tested: supernatant 1:5, 1:25, 1:250).

What follows are binders tested against T3, KIR3DL1 (UniProt P43629 22-444, limits assumed) (assay: HEK293 cell microarray).
T3 construct: whole, on cells
T3 sequence (P43629 22-444 limits assumed): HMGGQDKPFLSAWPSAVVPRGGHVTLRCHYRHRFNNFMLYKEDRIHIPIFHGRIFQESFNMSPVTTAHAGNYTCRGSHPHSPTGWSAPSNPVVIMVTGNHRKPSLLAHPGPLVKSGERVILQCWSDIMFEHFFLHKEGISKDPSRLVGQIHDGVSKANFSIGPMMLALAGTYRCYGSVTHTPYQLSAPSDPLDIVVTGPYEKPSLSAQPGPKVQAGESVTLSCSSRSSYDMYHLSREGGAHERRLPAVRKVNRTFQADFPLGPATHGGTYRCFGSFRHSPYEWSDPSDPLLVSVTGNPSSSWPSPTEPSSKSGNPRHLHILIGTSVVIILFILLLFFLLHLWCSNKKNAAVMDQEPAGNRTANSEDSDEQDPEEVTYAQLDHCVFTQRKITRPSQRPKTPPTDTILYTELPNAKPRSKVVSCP
Procedure: as §1
as §1, with “In Table 4, replicate” for “Replicate”, “the” for “a complete”, “panel (as in FIG. 1A, FIG. 2B, and FIG. 2C)” for “panel”
B1: no binding (tested: supernatant 1:5, 1:25, 1:250).
B2: no binding (tested: supernatant 1:5, 1:25, 1:250).
B3: no binding (tested: supernatant 1:5, 1:25, 1:250).

Each binder was assayed against T4, KIR2DS2 (UniProt P43631 22-304, limits assumed) (assay: HEK293 cell microarray).
T4 construct: whole, on cells
T4 sequence (P43631 22-304 limits assumed): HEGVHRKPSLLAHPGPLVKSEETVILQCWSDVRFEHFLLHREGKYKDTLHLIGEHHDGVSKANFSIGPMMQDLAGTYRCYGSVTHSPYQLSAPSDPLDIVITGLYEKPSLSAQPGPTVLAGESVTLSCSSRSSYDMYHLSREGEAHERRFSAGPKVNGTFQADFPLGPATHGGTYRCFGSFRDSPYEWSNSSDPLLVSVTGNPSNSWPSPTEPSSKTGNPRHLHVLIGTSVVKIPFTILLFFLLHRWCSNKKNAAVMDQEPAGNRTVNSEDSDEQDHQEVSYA
Procedure: as §1
as §1, with “In Table 4, replicate” for “Replicate”, “the” for “a complete”, “panel (as in FIG. 1A, FIG. 2B, and FIG. 2C)” for “panel”
B1: no binding (tested: supernatant 1:5, 1:25, 1:250).
B2: no binding (tested: supernatant 1:5, 1:25, 1:250).
B3: no binding (tested: supernatant 1:5, 1:25, 1:250).

Each binder was assayed against T5, KIR3DS1 (UniProt Q14943 22-382, limits assumed) (assay: HEK293 cell microarray).
T5 construct: whole, on cells
T5 sequence (Q14943 22-382 limits assumed): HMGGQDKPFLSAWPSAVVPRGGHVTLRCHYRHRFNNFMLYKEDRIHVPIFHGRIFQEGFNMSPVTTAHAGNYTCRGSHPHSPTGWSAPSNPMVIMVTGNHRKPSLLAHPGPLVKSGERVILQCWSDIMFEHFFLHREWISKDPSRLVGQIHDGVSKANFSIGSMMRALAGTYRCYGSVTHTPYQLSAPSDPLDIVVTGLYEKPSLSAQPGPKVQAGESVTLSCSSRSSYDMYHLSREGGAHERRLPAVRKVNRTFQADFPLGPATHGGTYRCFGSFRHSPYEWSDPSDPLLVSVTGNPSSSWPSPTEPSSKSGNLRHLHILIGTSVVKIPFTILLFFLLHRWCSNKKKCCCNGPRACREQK
Procedure: as §1
as §1, with “In Table 4, replicate” for “Replicate”, “the” for “a complete”, “panel (as in FIG. 1A, FIG. 2B, and FIG. 2C)” for “panel”
B1: no binding (tested: supernatant 1:5, 1:25, 1:250).
B2: no binding (tested: supernatant 1:5, 1:25, 1:250).
B3: no binding (tested: supernatant 1:5, 1:25, 1:250).

What follows are binders tested against T6, KIR2DS3 (UniProt Q14952 22-304, limits assumed) (assay: HEK293 cell microarray).
T6 construct: whole, on cells
T6 sequence (Q14952 22-304 limits assumed): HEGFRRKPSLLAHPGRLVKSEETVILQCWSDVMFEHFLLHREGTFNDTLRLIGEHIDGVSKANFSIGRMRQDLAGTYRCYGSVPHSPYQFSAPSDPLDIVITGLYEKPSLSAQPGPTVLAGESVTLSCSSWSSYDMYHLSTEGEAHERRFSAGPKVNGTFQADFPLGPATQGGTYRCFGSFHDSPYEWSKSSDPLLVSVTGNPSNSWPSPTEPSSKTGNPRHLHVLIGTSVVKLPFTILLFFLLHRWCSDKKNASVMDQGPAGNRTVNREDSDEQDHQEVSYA
Procedure: as §1
as §1, with “In Table 4, replicate” for “Replicate”, “the” for “a complete”, “panel (as in FIG. 1A, FIG. 2B, and FIG. 2C)” for “panel”
B1: no binding (tested: supernatant 1:5, 1:25, 1:250).
B2: no binding (tested: supernatant 1:5, 1:25, 1:250).
B3: no binding (tested: supernatant 1:5, 1:25, 1:250).

Each binder was assayed against T7, KIR2DL5A (UniProt Q8N109 22-375, limits assumed) (assay: HEK293 cell microarray).
T7 construct: whole, on cells
T7 sequence (Q8N109 22-375 limits assumed): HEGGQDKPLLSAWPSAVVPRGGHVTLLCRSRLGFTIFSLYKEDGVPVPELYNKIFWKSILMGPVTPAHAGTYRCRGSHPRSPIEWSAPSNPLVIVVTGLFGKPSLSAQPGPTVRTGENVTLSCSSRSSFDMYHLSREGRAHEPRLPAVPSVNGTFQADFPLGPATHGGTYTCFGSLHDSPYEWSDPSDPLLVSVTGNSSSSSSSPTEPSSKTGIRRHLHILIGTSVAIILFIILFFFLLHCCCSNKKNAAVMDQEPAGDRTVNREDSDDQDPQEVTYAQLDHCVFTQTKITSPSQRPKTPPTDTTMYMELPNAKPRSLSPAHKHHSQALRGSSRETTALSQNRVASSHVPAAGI
Procedure: as §1
as §1, with “In Table 4, replicate” for “Replicate”, “the” for “a complete”, “panel (as in FIG. 1A, FIG. 2B, and FIG. 2C)” for “panel”
B3: no binding (tested: supernatant 1:5, 1:25, 1:250).

The binders below were run against T8, KIR2DS5 (UniProt Q14953 22-304, limits assumed) (assay: HEK293 cell microarray).
T8 construct: whole, on cells
T8 sequence (Q14953 22-304 limits assumed): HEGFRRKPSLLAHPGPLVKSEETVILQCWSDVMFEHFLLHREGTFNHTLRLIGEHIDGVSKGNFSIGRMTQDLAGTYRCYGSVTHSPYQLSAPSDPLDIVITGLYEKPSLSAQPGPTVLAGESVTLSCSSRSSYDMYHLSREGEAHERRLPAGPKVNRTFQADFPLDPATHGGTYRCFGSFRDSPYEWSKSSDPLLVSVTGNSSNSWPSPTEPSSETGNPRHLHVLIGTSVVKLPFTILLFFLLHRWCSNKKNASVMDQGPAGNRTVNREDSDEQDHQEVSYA
Procedure: as §1
as §1, with “In Table 4, replicate” for “Replicate”, “the” for “a complete”, “panel (as in FIG. 1A, FIG. 2B, and FIG. 2C)” for “panel”
B1: no binding (tested: supernatant 1:5, 1:25, 1:250).
B2: no binding (tested: supernatant 1:5, 1:25, 1:250).
B3: no binding (tested: supernatant 1:5, 1:25, 1:250).

These binders were tested against T9, KIR2DL5B (UniProt Q8NHK3 22-375, limits assumed) (assay: HEK293 cell microarray).
T9 construct: whole, on cells
T9 sequence (Q8NHK3 22-375 limits assumed): as the sequence (Q8N109 22-375 limits assumed) above, with N152D, G174S counted along it
Procedure: as §1
as §1, with “In Table 4, replicate” for “Replicate”, “the” for “a complete”, “panel (as in FIG. 1A, FIG. 2B, and FIG. 2C)” for “panel”
B1: no binding (tested: supernatant 1:5, 1:25, 1:250).
B2: no binding (tested: supernatant 1:5, 1:25, 1:250).
B3: no binding (tested: supernatant 1:5, 1:25, 1:250).

These binders were tested against T10, KIR3DL2 (UniProt P43630 22-455, limits assumed) (assay: HEK293 cell microarray).
T10 construct: whole, on cells
T10 sequence (P43630 22-455 limits assumed): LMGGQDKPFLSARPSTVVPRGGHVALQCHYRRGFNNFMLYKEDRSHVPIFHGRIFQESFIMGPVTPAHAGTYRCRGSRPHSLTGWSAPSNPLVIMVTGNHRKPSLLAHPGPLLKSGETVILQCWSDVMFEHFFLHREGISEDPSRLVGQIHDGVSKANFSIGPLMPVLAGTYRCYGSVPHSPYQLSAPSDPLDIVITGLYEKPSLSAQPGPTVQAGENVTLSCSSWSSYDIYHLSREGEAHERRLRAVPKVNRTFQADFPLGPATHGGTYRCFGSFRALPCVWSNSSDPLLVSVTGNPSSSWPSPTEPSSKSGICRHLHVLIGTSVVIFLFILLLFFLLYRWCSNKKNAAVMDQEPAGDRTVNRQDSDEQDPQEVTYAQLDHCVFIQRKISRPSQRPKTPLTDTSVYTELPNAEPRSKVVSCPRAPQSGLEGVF
Procedure: as §1
as §1, with “In Table 4, replicate” for “Replicate”, “the” for “a complete”, “panel (as in FIG. 1A, FIG. 2B, and FIG. 2C)” for “panel”
B1: no binding (tested: supernatant 1:5, 1:25, 1:250).
B2: no binding (tested: supernatant 1:5, 1:25, 1:250).
B3: no binding (tested: supernatant 1:5, 1:25, 1:250).

Each binder was assayed against T11, KIR2DL1 (UniProt P43626 22-348, limits assumed) (assay: HEK293 cell microarray).
T11 construct: whole, on cells
T11 sequence (P43626 22-348 limits assumed): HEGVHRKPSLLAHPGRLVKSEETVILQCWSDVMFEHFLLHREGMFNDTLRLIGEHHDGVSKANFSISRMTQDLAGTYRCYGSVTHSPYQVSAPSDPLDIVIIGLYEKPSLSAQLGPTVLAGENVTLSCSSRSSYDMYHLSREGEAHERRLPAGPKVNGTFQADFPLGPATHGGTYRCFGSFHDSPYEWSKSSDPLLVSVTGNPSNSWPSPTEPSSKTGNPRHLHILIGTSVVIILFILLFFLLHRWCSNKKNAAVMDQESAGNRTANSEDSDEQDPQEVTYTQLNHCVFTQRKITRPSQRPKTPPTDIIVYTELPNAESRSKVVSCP
Procedure: as §1
as §1, with “In Table 4, replicate” for “Replicate”, “the” for “a complete”, “panel (as in FIG. 1A, FIG. 2B, and FIG. 2C)” for “panel”
B1: no binding (tested: supernatant 1:5, 1:25, 1:250).
B2: no binding (tested: supernatant 1:5, 1:25, 1:250).
B3: no binding (tested: supernatant 1:5, 1:25, 1:250).

These binders were tested against T12, KIR2DL2 (UniProt P43627 22-348, limits assumed) (assay: HEK293 cell microarray).
T12 construct: whole, on cells
T12 sequence (P43627 22-348 limits assumed): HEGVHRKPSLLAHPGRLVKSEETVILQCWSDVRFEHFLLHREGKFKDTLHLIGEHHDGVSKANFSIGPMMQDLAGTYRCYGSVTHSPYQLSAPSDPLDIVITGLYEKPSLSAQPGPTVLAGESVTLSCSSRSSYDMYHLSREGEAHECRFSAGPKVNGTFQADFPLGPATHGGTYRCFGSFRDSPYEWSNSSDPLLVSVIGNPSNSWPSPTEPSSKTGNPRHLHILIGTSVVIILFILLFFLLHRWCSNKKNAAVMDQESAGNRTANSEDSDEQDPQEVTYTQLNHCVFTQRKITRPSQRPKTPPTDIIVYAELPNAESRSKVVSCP
Procedure: as §1
as §1, with “In Table 4, replicate” for “Replicate”, “the” for “a complete”, “panel (as in FIG. 1A, FIG. 2B, and FIG. 2C)” for “panel”
B1: no binding (tested: supernatant 1:5, 1:25, 1:250).
B2: no binding (tested: supernatant 1:5, 1:25, 1:250).
B3: no binding (tested: supernatant 1:5, 1:25, 1:250).

The binders below were run against T13, KIR2DL3 (UniProt P43628 22-341, limits assumed) (assay: HEK293 cell microarray).
T13 construct: whole, on cells
T13 sequence (P43628 22-341 limits assumed): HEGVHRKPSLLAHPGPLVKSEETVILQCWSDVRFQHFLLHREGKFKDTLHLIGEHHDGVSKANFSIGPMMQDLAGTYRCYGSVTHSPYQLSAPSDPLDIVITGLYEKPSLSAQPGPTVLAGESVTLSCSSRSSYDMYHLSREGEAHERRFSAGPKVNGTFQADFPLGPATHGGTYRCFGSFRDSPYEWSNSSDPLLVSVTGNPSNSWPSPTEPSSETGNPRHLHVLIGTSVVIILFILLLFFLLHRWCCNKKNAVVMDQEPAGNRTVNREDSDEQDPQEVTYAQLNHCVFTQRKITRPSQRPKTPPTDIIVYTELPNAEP
Procedure: as §1
as §1, with “In Table 4, replicate” for “Replicate”, “the” for “a complete”, “panel (as in FIG. 1A, FIG. 2B, and FIG. 2C)” for “panel”
B1: no binding (tested: supernatant 1:5, 1:25, 1:250).
B2: no binding (tested: supernatant 1:5, 1:25, 1:250).
B3: no binding (tested: supernatant 1:5, 1:25, 1:250).

These binders were tested against T14, KIR2DS1 (UniProt Q14954 22-304, limits assumed) (assay: HEK293 cell microarray).
T14 construct: whole, on cells
T14 sequence (Q14954 22-304 limits assumed): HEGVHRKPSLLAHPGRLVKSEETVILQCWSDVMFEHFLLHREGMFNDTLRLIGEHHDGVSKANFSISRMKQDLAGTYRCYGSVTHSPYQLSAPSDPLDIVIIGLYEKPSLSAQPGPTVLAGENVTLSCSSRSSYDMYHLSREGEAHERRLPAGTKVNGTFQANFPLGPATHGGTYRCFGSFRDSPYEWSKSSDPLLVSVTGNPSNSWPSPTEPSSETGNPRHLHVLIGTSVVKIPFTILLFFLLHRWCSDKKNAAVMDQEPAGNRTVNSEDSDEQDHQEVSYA
Procedure: as §1
as §1, with “In Table 4, replicate” for “Replicate”, “the” for “a complete”, “panel (as in FIG. 1A, FIG. 2B, and FIG. 2C)” for “panel”
B1: no binding (tested: supernatant 1:5, 1:25, 1:250).
B2: no binding (tested: supernatant 1:5, 1:25, 1:250).
B3: no binding (tested: supernatant 1:5, 1:25, 1:250).
